Measurements published in patent US20200332015A1 (NAMAB THERAPEUTICS, published 2020).
Values joined by “and” are separate entries in the source; they are usually repeats but may differ in a detail not shown here. Equal entries are not always repeated. Where two headings read alike, the source gives them in different places. Blank lines part the entries; values can stand above or below the binder they belong to.

Legend:
[1] = molecular target: T1, human CD137 expressed on Jurkat cells (human, UniProt Q07011 24-255); assay: cell-based or functional assay
[2] = molecular target: T2, mouse Fc-tagged mouse CD137 (R&D Systems, cat. 937-4B-050) (mouse, UniProt P20334 24-187); assay: SPR T200, antigen-Fc captured, molecule as analyte
T2 construct: also called mouse CD137-Fc chimeric protein
T2 sequence (looked up): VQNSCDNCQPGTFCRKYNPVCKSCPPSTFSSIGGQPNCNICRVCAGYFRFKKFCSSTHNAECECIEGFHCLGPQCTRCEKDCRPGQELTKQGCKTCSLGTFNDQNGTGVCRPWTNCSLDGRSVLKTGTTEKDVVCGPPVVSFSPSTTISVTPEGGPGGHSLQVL
Outline: (§1)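 Biacore T200: anti-Fc antibody amine-coupled on CM5 chip captures chimeras of different species. Molecules injected as three-fold dilutions (0.12-90 nM) for 3 min, dissociation 10 min, 3 M MgCl₂ regeneration. Apparent ka, kd and KD from 1:1 Langmuir fit.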

[3] = molecular target: T3, Fc tagged human CD137 (R&D Systems, cat. 838-4B-100) (human, UniProt Q07011 24-186); assay: SPR T200, antigen-Fc captured, molecule as analyte
T3 construct: also called CD137 Fc chimera; human CD137-Fc chimeric protein
Outline: as §1

[4] = molecular target: T4, cynomolgus monkey Fc-tagged CD137 (R&D Systems, cat. 9324-4B-100) (cynomolgus monkey, UniProt A9YYE7 24-186); assay: SPR T200, antigen-Fc captured, molecule as analyte
T4 construct: also called cynomolgus CD137-Fc chimeric protein
Outline: as §1

[5] = molecular target: human PDL1-Fc chimeric protein (human, UniProt Q9NZQ7 19-238, limits assumed); assay: SPR T200, antigen-Fc captured, molecule as analyte
Outline: as §1

[6] = molecular target: T1, human CD137 expressed on Jurkat cells; assay: cell-based or functional assay; remark: listed apart in the source
[7] = molecular target: T1, human CD137 expressed on Jurkat cells; assay: cell-based or functional assay; remark: listed apart in the source
[8] = molecular target: T1, human CD137 expressed on Jurkat cells; assay: cell-based or functional assay; remark: listed apart in the source
[9] = molecular target: T1, human CD137 expressed on Jurkat cells; assay: cell-based or functional assay; remark: listed apart in the source
[10] = molecular target: T1, human CD137 expressed on Jurkat cells; assay: cell-based or functional assay; remark: listed apart in the source
[11] = molecular target: T1, human CD137 expressed on Jurkat cells; assay: cell-based or functional assay; remark: listed apart in the source
[12] = molecular target: T1, human CD137 expressed on Jurkat cells; assay: cell-based or functional assay; remark: listed apart in the source
[13] = molecular target: T1, human CD137 expressed on Jurkat cells; assay: cell-based or functional assay; remark: listed apart in the source
[14] = molecular target: T1, human CD137 expressed on Jurkat cells; assay: cell-based or functional assay; remark: listed apart in the source
[15] = molecular target: T5, recombinant human CD137 extracellular domain (Peprotech, cat. 310-15-1MG) (human, UniProt Q07011 24-186); assay: SPR T200, Morrison format captured, ECD analyte
T5 construct: also called human CD137 ECD; CD137 ECD
Description: (§2) Affinity to PDL1 of the different species was determined by SPR measurements using a Biacore T200 device (GE Healthcare). An antibody specific for the Fc region of human IgGs was immobilized on a sensor chip (CM5 sensor chip, GE Healthcare) by amine-coupling. For all formats, with the exception of the Fc containing Morrison formats, PDL1-Fc chimeric protein from different species were captured by the immobilized antibody. Three-fold serial dilutions of the molecules specific for PDL1 (0.12-90 nM) were injected into the flow cells for three minutes and dissociation was monitored for 10 minutes. After each injection cycle, surfaces were regenerated with one injection of a 3 M MgCl₂ solution. The apparent dissociation (kd) and association (kₐ) rate constants and the apparent dissociation equilibrium constant (KD) were calculated using one-to-one Langmuir binding model. Affinity to CD137 of the different species was determined using the identical setup as for PDL1 with the exception that CD137-Fc chimeric proteins from different species were captured by the immobilized antibody.
(§3) The Fc containing formats were directly captured by the antibody specific for the Fc region of human IgGs. Two-fold serial dilutions of PDL1 extracellular domain or CD137 extracellular domain ranging from 90 to 0.35 nM were tested for binding to the IgG captured on the biosensor chip. After each injection cycle, surfaces were regenerated with one injection of a 3 M MgCl2 solution.

[16] = molecular target: T6, human PDL1 extracellular domain (human, UniProt Q9NZQ7 19-238); assay: SPR T200, Morrison format captured, ECD analyte
T6 construct: extracellular domain; Analyte for the Fc containing Morrison formats
Description: as §2, §3

T4 sequence (A9YYE7 entry or part of it): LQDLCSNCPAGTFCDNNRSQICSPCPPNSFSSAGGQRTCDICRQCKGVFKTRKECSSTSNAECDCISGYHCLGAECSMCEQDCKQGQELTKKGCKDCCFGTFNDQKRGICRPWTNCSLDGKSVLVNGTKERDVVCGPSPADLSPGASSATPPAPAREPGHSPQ

EC50 NFkB-luciferase, HCC827 with IFNy stimulation [1]: 0.00751 µg/mL | EC50 NFkB-luciferase, HCC827 without IFNy stimulation [1]: 0.00952 µg/mL | Kd [2]: 600 nM | koff [2]: 0.18 s⁻¹ | kon [2]: 290000 M⁻¹ s⁻¹ | Kd [3]: 3.2 nM | koff [3]: 0.00076 s⁻¹ | kon [3]: 240000 M⁻¹ s⁻¹ | Kd [4]: 2.1 nM | koff [4]: 0.0007 s⁻¹ | kon [4]: 340000 M⁻¹ s⁻¹ | Kd [5]: 0.065 nM | koff [5]: 0.00014 s⁻¹ | kon [5]: 2.1e+06 M⁻¹ s⁻¹ | EC50 NFkB-luciferase, HCC827 without IFNy [6]: 0.0115 µg/mL and 0.0131 µg/mL and 0.013 µg/mL | EC50 NFkB-luciferase, CHO-PDL1 cells, 6 h [7]: 0.00784 µg/mL | EC50 NFkB-luciferase, CHO-PDL1 cells, 6 h, + HSA [7]: 0.00792 µg/mL | Top of curve fit, NFkB-luciferase, CHO-PDL1 cells, 6 h, + HSA [7]: 493 | EC50 NFkB-luciferase, HCC827 with IFNy [8]: 0.00927 µg/mL and 0.00888 µg/mL and 0.00923 µg/mL | EC50 NFkB-luciferase, CHO-PDL1 cells, 24 h [9]: 0.0138 µg/mL | EC50 NFkB-luciferase, CHO-PDL1 cells, 24 h, + HBA (so in the source) [9]: 0.0149 µg/mL | Top of curve fit, NFkB-luciferase, CHO-PDL1 cells, 24 h, + HBA (so in the source) [9]: 258 | max. activation, HCC827 +IFNg [10]: 134% | max. activation, HCC827 -IFNg [10]: 111% | max. activation, NF-kB reporter gene, CHO-PD-L1 [10]: 499% | rel. IC50 (urelumab/test), HCC827 +IFNg [10]: 16.3 ratio | rel. IC50 (urelumab/test), HCC827 -IFNg [10]: 8.42 ratio | rel. IC50 (urelumab/test), NF-kB reporter gene, CHO-PD-L1 [10]: 6.75 ratio | EC50 of IL-2 secretion, PBMC + CHO-PDL1 50,000 cells/well, anti-CD3 1 ug/ml [11]: 0.0129 µg/mL | EC50 of IL-2 secretion, PBMC + CHO-PDL1 50,000 cells/well, anti-CD3 2 ug/ml [11]: 0.052 µg/mL | EC50 of IL-2 secretion, PBMC + CHO-PDL1 100,000 cells/well, anti-CD3 1 ug/ml [11]: 0.0862 µg/mL | EC50 of IL-2 secretion, PBMC + CHO-PDL1 100,000 cells/well, anti-CD3 2 ug/ml [11]: 0.0419 µg/mL | EC50 of IL-2 secretion, PBMC + CHO-PDL1 200,000 cells/well, anti-CD3 1 ug/ml [11]: 0.0806 µg/mL | EC50 of IL-2 secretion, PBMC + CHO-PDL1 200,000 cells/well, anti-CD3 2 ug/ml [11]: 0.0301 µg/mL | EC50 of IL-2 secretion, SEA stimulated PBMC, 96 h [12]: 0.0399 µg/mL | EC50 NFkB-luciferase, CHO-PDL1 cells [13]: 0.0117 µg/mL | EC50 NFkB-luciferase, CHO-PDL1 cells [14]: 0.0063 µg/mL and 0.00513 µg/mL and 0.00486 µg/mL
B1: PRO885 (38-02-A04 sc01 scDb-i/33-03-G02 sc01 scDb-o) (bispecific antibody)
chain: DIQMTQSPSSLSASVGDRVTITCQASQSINDYLAWYQQKPGKAPKLLIYKASTLASGVPSRFSGSGSGTDFTLTISSLQPEDFATYYCQQGYIITDIDNVFGTGTKVTVLGGGGGSQVQLQESGPGLVKPSETLSLTCKVSGFSFSNSYWICWIRQPPGKGLEWIGCTFVGSSDSTYYANWAKGRVTISVDSSKNQFSLKLSSVTAADTAVYYCARHPSDAVYGYANNLWGQGTLVTVSSGGGGSGGGGSGGGGSGGGGSIQMTQSPSSLSASVGDRVTITCQASQSINNVLAWYQQKPGKAPKLLIYRASTLASGVPSRFSGSGSGTDFTLTISSLQPEDFATYYCQSSYGNYGDFGTGTKVTVLGGGGGSQVQLQESGPGLVKPSETLSLTCKVSGFSFSSGYDMCWIRQPPGKGLEWIGCVVAGSVDITYYASWAKGRVTISVDSSKNQFSLKLSSVTAADTAVYYCARKDAYSDAFNLWGQGTLVTVSS
notes: scDb, PDL1 x CD137; also called anti-PDL1xCD137 scDb

EC50 NFkB-luciferase, HCC827 with IFNy stimulation [1]: 0.0175 µg/mL | EC50 NFkB-luciferase, HCC827 without IFNy stimulation [1]: 0.0136 µg/mL | EC50 NFkB-luciferase, CHO-PDL1 cells, 6 h [7]: 0.0564 µg/mL | Kd [15]: 1.3 nM | koff [15]: 0.00039 s⁻¹ | kon [15]: 300000 M⁻¹ s⁻¹ | Kd [16]: 0.036 nM | koff [16]: 4.6e-05 s⁻¹ | kon [16]: 1.3e+06 M⁻¹ s⁻¹ | EC50 NFkB-luciferase, CHO-PDL1 cells, 24 h [9]: 0.0808 µg/mL | max. activation, HCC827 +IFNg, 24h [10]: 97% | max. activation, NF-kB reporter gene, CHO-PD-L1, 24h [10]: 144% | rel. IC50 (urelumab/test), HCC827 +IFNg, 24h [10]: 3.01 ratio | rel. IC50 (urelumab/test), HCC827 -IFNg, 24h [10]: 3.5 ratio | rel. IC50 (urelumab/test), NF-kB reporter gene, CHO-PD-L1, 24h [10]: 0.58 ratio
B2: PRO1060 (33-03-G02 IgG1 HC with 38_02_A04 sc01 scFv, PDL1/CD137(scFv) silent Morrison) (bispecific antibody)
light: DIQMTQSPSSLSASVGDRVTITCQASQSINDYLAWYQQKPGKAPKLLIYKASTLASGVPSRFSGSGSGTDFTLTISSLQPEDFATYYCQQGYIITDIDNVFGTGTKVTVLGTVAAPSVFIFPPSDEQLKSGTASVVCLLNNFYPREAKVQWKVDNALQSGNSQESVTEQDSKDSTYSLSSTLTLSKADYEKHKVYACEVTHQGLSSPVTKSFNRGEC
heavy: QVQLQESGPGLVKPSETLSLTCKVSGFSFSSGYDMCWIRQPPGKGLEWIGCVVAGSVDITYYASWAKGRVTISVDSSKNQFSLKLSSVTAADTAVYYCARKDAYSDAFNLWGQGTLVTVSSASTKGPSVFPLAPSSKSTSGGTAALGCLVKDYFPEPVTVSWNSGALTSGVHTFPAVLQSSGLYSLSSVVTVPSSSLGTQTYICNVNHKPSNTKVDKRVEPKSCDKTHTCPPCPAPEAAGGPSVFLFPPKPKDTLMISRTPEVTCVVVDVSHEDPEVKFNWYVDGVEVHNAKTKPREEQYNSTYRVVSVLTVLHQDWLNGKEYKCKVSNKALGAPIEKTISKAKGQPREPQVYTLPPSREEMTKNQVSLTCLVKGFYPSDIAVEWESNGQPENNYKTTPPVLDSDGSFFLYSKLTVDKSRWQQGNVFSCSVMHEALHNHYTQKSLSLSPGKGGGGSGGGGSIQMTQSPSSLSASVGDRVTITCQASQSINNVLAWYQQKPGKAPKLLIYRASTLASGVPSRFSGSGSGTDFTLTISSLQPEDFATYYCQSSYGNYGDFGTGTKVTVLGGGGGSGGGGSGGGGSGGGGSQVQLQESGPGLVKPSETLSLTCKVSGFSFSNSYWICWIRQPPGKGLEWIGCTFVGSSDSTYYANWAKGRVTISVDSSKNQFSLKLSSVTAADTAVYYCARHPSDAVYGYANNLWGQGTLVTVSS
notes: IgG1 with scFv fused to the heavy chain; called bivalent; also called Morrison-H
